{"source": "paper PMC11366018", "about": "(Nature Communications, 2024)", "note": "Values joined by “and” are separate entries in the source; they are usually repeats but may differ in a detail not shown here. Identical values can stand only once.", "data": [{"target": "SARS-CoV-2 RBD (WT) (SARS-CoV-2 Wuhan-Hu-1 (wildtype), UniProt P0DTC2)", "assay": "BLI", "details": "both partners purified", "values": [{"binder": "H18 (antibody, V domains shown, human IgG1) VH: QVQLQESGPGLVKPSETLSLTCTVSGGSVSSGGYFWSWIRQPPGKGLEWIGCIYYSGSTNYNPSLKSRVTISVDTSKDQFSLKLSSVTAADTAVYYCARQLWLRGRFDYWGQGTLVTVSS VL: NFMLTQPHSVSESPGKTVTISCTRSSGSIASNYVQWYQQRPGSSPTTVIYEDNQRPSGVPDRFSGSIDSSSNSASLTISGLKTEDEADYYCQSYDSSNVVFGGGTKLTVL", "Kd": "29.5 nM and 29 nM", "koff": "0.00931 s⁻¹ and 0.0162 s⁻¹", "kon": "316000 M⁻¹ s⁻¹ and 560000 M⁻¹ s⁻¹"}, {"binder": "R1-26 (antibody, V domains shown) VH: EVQLVESGGGLVQPGGSLRLSCAASGFTFSSYWMSWVRQAPGKGLEWVANIKQDGSEKYYVDSVKGRFTISRDNAKNSLYLQMNSLRAEDTAVYYCARGQLGPWVGVDYWGQGTLVTVSS VL: NFMLTQPHSVSESPGKTVTISCTGSSGSIASNYVQWYQQRPGSAPTTVIYEDNQRPSGVPDRFSGSIDSSSNSASLTISGLKTEDEADYYCQSYDSSNWVFGGGTQLTVL", "Kd": "5.75 nM", "koff": "0.00291 s⁻¹", "kon": "507000 M⁻¹ s⁻¹"}, {"binder": "S2A4 (antibody, V domains shown) VH: EVQLVESGGGLVQPGGSLRLSCAASGFTFSSYWMNWVRQAPGKGLEWVANIKQDGSEKYYVDSVKGRFTISRDNAKNSLFLQMNSLRAEDTAVYYCARVWWLRGSFDYWGQGTLVTVSS VL: NFMLTQPHSVSESPGKTVTISCTGSSGSIASNYVQWYQQRPGSAPTTVIYEDNQRPSGVPDRFSGSIDSSSNSASLTISGLKTEDEADYYCQSYDSSNHVVFGGGTKLTVL", "Kd": "25.3 nM", "koff": "0.0096 s⁻¹", "kon": "380000 M⁻¹ s⁻¹"}]}]}
